# Assay results: the DeepSol protein solubility set
# Assay: soluble on expression in E. coli; label from the status in PepcDB or PDB records
row,Sequence,soluble on expression in E. coli
1,MQSIEHFEPQFLSFIQKEMVQDLAHDINHVLRVVSMAKRLCVEEKGKEAVVIPAAYLHDCFSFAKDHSNRSQSSAFAADKALVFLKEIGYPSEYYDEIHHAIVAHSFSAKVETRTLEAKIVQDADRLDALGAIGIARCLQVSTKLNSPLYSIDDPFCYHREPNDKAYTIDHFYAKLLTLANTMKTTSAVAEAEKRTQYMRDYLTQLESELLEHHHHHH,soluble
2,MTKKKAKKNQKTGAAAAPPHESQKKEKENDFEMLEDIKRDEDLFFSETDISNISNFIRTTNKSFNSLGNTFVEQFTNRCSLAIFQALATCFEIHSEERDDVIRRLNIIYIVWRLPDLEPELRPKPPKNLSDVYSHPYATFLFAAEQIEHRIEAMLARIIVSNNINQVEKLTAPDFIQKAAAGGLTVVVEGIDRTGFVDWCEANTDHWPEVHDSVVPLPKAMRELGCERKDYESGMAEAFYPIMHNAPTQLPPRMEALEQEDPIIREWRLKVDPENTSATPVIYSMCSGDKMQEELMQAFDELEPTIAEYQSDLIAGMTAPELEELNKQIDCDDQMSQSSDSAPPSEVSSDLELDTALDIRDGMTMPLVDLKDEVIEGCVDRILDGTTLTTSKSDMMIQFVRTALITHPQYDRLLQASVLDENIISFIRTNVKFAGAFLVRNALSEQDTCLLFKRYMRLCEGVNSTVHSLETVLKLSKEFIEHDKLTQEHREVVLAFVRHTIRTCEGDRTVRLVAMLVKKLLRERVLNVEDIAADVKPFTLKYTDNRECTALYQSMINMQNGGGGGGQENMTTSTTTTTTTTKSSSPNSLSTTTTTTSHNPGASATTTTTTVVKTCGPATFKQTSRKVVLQFKNPSQNAHF,not soluble
3,MAHHHHHHMGAKILTKIQREKLVEWENCVSVIEAAILKHKYKQKVNKNIPSLLRVQAHIRKKMV,not soluble
4,MSNPYPKQEVTLMLHTANPVIKHKAGLLNLAEELSNVSKACKIMGVSRDTFYRYRELVAEGGVDAQINRSRRAPNLKNRTDEATEQAVVDYAVAFPTHGQHRASNELRKQGVFISDSGVRSVWLLHNLENLKRRYLEHHHHHH,not soluble
5,MALLQISEPGLTAAPHQRRLAAGIDLGTTNSLVATVRSGKAQTLADEQLADEQLIADEQLIAGEQLIAGQQLIAGQQLINEKQRDLLPSVVHYHPQGIDVGWKARNLAALDPVNTISSVKRMMGRSLADIVQRYPNLPYQFHASENGLPMIQTARGLVNPVQVSAEILKTLAQRAQAALAGELDGVVITVPAYFDDAQRQGTKDAARLAGLHVLRLLNEPTAAAIAYGLDSGQEGVIAVYDLGGGTFDISILRLSRGVFEVLATGGDSALGGDDFDHLLADWLREQAGVATRDDHGIQRQLLDTAIAAKIALSEAETAVVSVAGWQGEVTREQLESLIAPQVKRTLMACRRALKDAGVTADEILEVVMVGGSTRVPLVREQVGQFFGRTPLTSIDPDKVVAIGAAIQADILVGNKPDSDMLLLDVIPLSLGLETMGGLVEKVIPRNTTIPAARAQEFTTFKDGQSAMMIHVLQGERELVKDCRSLARFTLRGLPPLPAGGAHIRVTFQVDADGLLSVTAMEKSTGVEASIQVKPSYGLSDDEIANMIKDSMANAQSDITARKLAEQRVDAARVLESLQGALAEDAALLSEQESAAIAQAVALLQQQMQGSDPQAIEAAIKALDAQTQDFAARRMDASIRRALAGHSVDEV,soluble
6,MGTVLFEDKASETKGSDIYHRIIPDAESYIKEQARTVLATLYNSPEDSITPVNKIHYTLEDIEGISAKGGGNGDVTIFYSTRHIEKSFAENDTAKLFFETRGVLLHELTHAYQLEPQGIGSYGTNRVFWAFIEGMADAVRVANGGFDGPNARPKGGNYMDGYRTAGYFFVWLRDNKDPEFLRKFNRSTLEVIPWSFDGAIKHILGTEYSIDELWHEYQVAVGDIQVLEHHHHHH,not soluble
7,MVQRLISANASEIKRMSKEELFQSIKASEGRVILSENVVVHPSVAGDITCAEMSKAYGADMILLNVFDVNQPIVVAAYEGQYTAETCVPNDEVVHRLKELVGLPIGMNVEPVDENLDLASTRVSIEPGRKASAATFKKANELGLDFILLTGNPGTGVTNDLIAKNVALAKKHFDGIIIAGKMHSSGVDEPVVSLKSAEQFIEAGADIVLVPAVGTVWGIDDQQVKEVVDFAHSKGKLVMSAIGTSQESAQPEVIQAIGIRNKILGVDIQHIGDANMGLVGIENIKELSDAIRGKRHTVARMARSINR,not soluble
8,MNILLAGGSGLIGQELVRGMGEEHHYTVLGRDKDAIQKIFTTKASSLSWDELNTQDASRFDAVINLCGVNIAISRWTPKIKEEIISSRVQTTENLLHWILQQNAKPRFYCANAVGIYGLQENGDATDLTEDTAINWEHPKDYLSEVGIRWQQALQKAEEAGLPVTSTRFGVVLKKGKGFLGKLYPSFICGLGSTIGDGRQYLSWIDSEDLVNAYRFLLNHPEITGPVNVTSPNPCMQREFAKAFAKSLHRPLLLWTPAFIIHLLFGEMGDCLINHGQKVKPKRLLEAGFEFKWPDIEKALKHQYSAILEHHHHHH,soluble
9,MGSDKIHHHHHHMQGVPEHFTDERDYAQFRHLPTLPGIELYHAHICRYAFEPHTHEAFGIGTIDDGAEQFRYRGAKHIAPVDSLVLMNPDELHTGESATEDGWRYRMIYIPPDVLESVSGEKGWWFTDVVRHDPATARQLAMTLAALWQTTDPLASESLLLSLIALFRPHAHIAQRQVVEPFHRFDVVKAYLRENFAHTITLKELAALVSLSPYHFLRQFKTQFHVTPHQMLMAIRLYEAKQMLTRGMAAAHVALAVGLTDQAHLTRTFAQRYGVTPIRYQKQVYPTLR,not soluble
10,MGGSLGLALQEWGRFKSVIGYDHNALHAKLALTLGLVDECVGFEKILECDVIFLAIPVEGIIGCLKKMTSIKKSATIIDLGGAKAQIIRNIPKSIRKNFIAAHPMCGTEFYGPKASVKGLYENALVILCDLEDSGTEQVEIAKEIFLGVKARLIKMKSNEHDTHVAYISHLPHVLSYALANSVLKQNDPEMILSLAGGGFRDMSRLSKSSPLMWKDIFKQNRDNVLEAIKKCEKEIVQAKAWIENNDYESLAEWMAQANKLQEFMLEHHHHHH,not soluble
11,MSLRDEFSLIRSISPANVHQPSLHVGIGDDAAIYEGAPEMEEVLCVDTMVEEIHFRRDTLTPFQIGYKSLAINISDLAAMGATPKFYLVSIAVPPQWSDREIKTLYRGMAECAAPYRMDLIGGDTVSTNAKLVVTVTAVGHVPKGTRLLRQRARPGDVVFLTGTVGQSAAGLELLNKKGLHGPFTEEEELLVLAHQQPQPQVEAGHLFARSGYRIALNDVSDGVASEANELAEASKVKLVLKANTIPLHPAMETFSKEQQLEWALFGGEDFQLIGTAAVDAFASLQQLAIQRGISLTEIGYVEAGSPVVELEEGTARSVLKKSGYNHFAKEGHHHHHH,soluble
12,MGTICDAASPTFMLQHWVRDRRRGSRISLEHAIKRQCHDTARLYGLDDRGVIAPGYLADINVIDFDRVRLLKPWLAFDLPAGGKRLLQKAEGYDYTIKGGKVTFRNGEWTGATPGNLIRGPQRADLMEAAELEHHHHHH,not soluble
13,SMSGMKSSKSKDVLSAAEVMQWSQSLEKLLANQTGQNVFGSFLKSEFSEENIEFWLACEDYKKTESDLLPCKAEEIYKAFVHSDAAKQINIDFRTRESTAKKIKAPTPTCFDEAQKVIYTLMEKDSYPRFLKSDIYLNLLNDLQA,soluble
14,MAHHHHHHGHHHQLENLYFQGEETAVPENSGANTELVSGESEHSTNEADKQNEGEHARENKLEKAEGVATASETASPASNEAATTETAEAASAAKPEEKASEVVAETPSAEAKPKSDKETEAKPEATNQGDESKPAAEANKTEKEVQPDVPKNTEKTLKPKEIKFNSWEELLKWEPGAREDDAINRGSVVLASRRTGHLVNEKASKEAKVQALSNTNSKAKDHASVGGEEFKAYAFDYWQYLDSMVFWEGLVPTPDVIDAGHRNGVPVYGTLFFNWSNSIADQERFAEALKQDADGSFPIARKLVDMAKYYGYDGYFINQETTGDLVKPLGEKMRQFMLYSKEYAAKVNHPIKYSWYDAMTYNYGRYHQDGLGEYNYQFMQPEGDKVPADNFFANFNWDKAKNDYTIATANWIGRNPYDVFAGLELQQGGSYKTKVKWNDILDENGKLRLSLGLFAPDTITSLGKTGEDYHKNEDIFFTGYQGDPTGQKPGDKDWYGIANLVADRTPAVGNTFTTSFNTGHGKKWFVDGKVSKDSEWNYRSVSGVLPTWRWWQTSTGEKLRAEYDFTDAYNGGNSLKFSGDVAGKTDQDVRLYSTKLEVTEKTKLRVAHKGGKGSKVYMAFSTTPDYKFDDADAWKELTLSDNWTNEEFDLSSLAGKTIYAVKLFFEHEGAVKDYQFNLGQLTISDNHQEPQSPTSFSVVKQSLKNAQEAEAVVQFKGNKDADFYEVYEKDGDSWKLLTGSSSTTIYLPKVSRSASAQGTTQELKVVAVGKNGVRSEAATTTFDWGMTVKDTSLPKPLAENIVPGATVIDSTFPKTEGGEGIEGMLNGTITSLSDKWSSAQLSGSVDIRLTKSRTVVRWVMDHAGAGGESVNDGLMNTKDFDLYYKDADGEWKLAKEVRGNKAHVTDITLDKPITAQDWRLNVVTSDNGTPWKAIRI,soluble
15,MGSDKIHHHHHHMTAFNPIAIIPHYNHSATVGSVAEQLNQLGLPVLIVDDGSSLEHKAVIEQFPQNEQLSILFCEINGGKGAAFKAGLKQTQKLGFSHAIQVDADGQHNIIDVKKMLEQAEKSPNAIVCGKPIYGKDAPKSRLYGRKITDFWNAINTLSFDIKDGMCGFRIYPIAQIMPILAQEQIGGGMDFDTEILIHSYWQKIPLIWVDTPVKYEKDGISHFRGWADNWLISKMHARLFFRMLKRLFTGKIR,not soluble
16,KNAELSIKLNKEEYQANEDIEIQITAPYTGSGLITIERDKVYAVHWFKTEAQNSVQTIRIPADFQGNGYVNVAFIRDWESPELFISPLSYSVAPFNVNHDKHDIKIGLKTPELARPGESFTIDYHTDKPGKIIVFAVDEGILQVANY,not soluble
17,MTIEGGEQEVNVSSGGAWQSSIHCDWMTLSPSSGGIGITKVRIKVKKNTSGLPRNGRIAIISGKEEKGITVMQSSIEGEEDYLRLLNLTIDGVTTAVDYVNNSYYLPIDMDAVQPAKVKVEFGGIGVDFIKIGDKKIKSGENIALSLNPGQNIEMEAGNNTIDKIRSCRLIVTGVPVIEISAPEGIEDENKRPCDIVLTDPKRRTNNSVLRFESYAGIEFRGAGALRYAKKSFSFKLKNRQTNENQDAKLLGLREDQSWILDAMWLDCSKMRNRVCFDLWNDFNTLYYSNTEPEAVNATHGYPVEMILDGAYHGLYILSDRIDRKQLKMKKKGGYLYKGKEWTDECKLQGINTPYSNSKQAWQGFESDYPDEVGEIEFKYLSDLIQFFAAASKEEFAAQYEERLDVSSLIDYFIFINLLSAYDNTGRNVFWGIYNVNLTLLPKFIIQPWDLDGTLGRTWDAIKLDPEKGLGFDNGLILRNDAGSKYFRPFERIMNENPNNIKRRIYERLMAVKDNVLSPANLASKVDYYKRQIVESGALERDRQRWTGYSMYGYANPEEEAEYIKSWYIARLKYLETIFNNF,not soluble
18,VYSDPLREAIAEAEQLVAAAPHIETEADLLEGLQYLAGCIAGCMHLAFDYERDHPFLQSGTGPFTKMGLDNPDTLYFGTRLQANRDYVVSGRRGTTTDLSFQLLGGEYTDYNVPASQAAFDDRELDIAADGSFEWRLRPSAPGQLVIREVYGDWSQQRGTLAIARLDTVGTAPPPLTRELMEKRYATAGSQLVNRVKTWLQFPQWFYLNIPVNTMVAPRLTPGGLATQYSSAGHFELRPGQALVITVPVSDAPYLGFQLGSMWYISLDYINHQTSLNASQAQADPDGKVRIVVAEQNPGVTNWVETLGHRRGFLQFRWQRVSRELTEADGPTVELVDFDAIPAALPHYQHNKISEDDWRARIALRQRQIATRMLG,not soluble
